Experimental data as given in publication PMC3578875.
pKd: −log10 of the molar value.

Target: human mu opioid receptor, N-terminally his-tagged (human) (UniProt P35372)
Experiment: SPR; Biacore-X, 25°C; OPRM captured on a Ni-NTA sensor chip (about 4000 RU), second cell as reference; running Buffer B (5 mM NaHPO4, 10% glycerol, 0.07% Fos-12, pH 7.5); EM-1 injected at 10, 30, 50, 60, 80, 100 nM, 5 µl/min, no regeneration; 1:1 interaction model

UniProt P35372, sequence (P35372 whole entry): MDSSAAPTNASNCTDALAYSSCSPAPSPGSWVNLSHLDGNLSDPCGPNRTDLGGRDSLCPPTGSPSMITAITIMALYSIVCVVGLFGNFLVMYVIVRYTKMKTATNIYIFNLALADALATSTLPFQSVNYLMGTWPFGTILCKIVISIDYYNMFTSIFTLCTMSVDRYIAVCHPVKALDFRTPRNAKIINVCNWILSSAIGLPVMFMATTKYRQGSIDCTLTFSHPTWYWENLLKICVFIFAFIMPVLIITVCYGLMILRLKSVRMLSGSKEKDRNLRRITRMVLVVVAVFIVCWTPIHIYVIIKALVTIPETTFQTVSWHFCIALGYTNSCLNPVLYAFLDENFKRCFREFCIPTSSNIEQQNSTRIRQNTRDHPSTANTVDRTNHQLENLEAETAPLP

pKd: 7.22
Substance: endomorphin-1 (peptide)
